Laboratory results reported in the DeepSol protein solubility set.

Test: soluble on expression in E. coli; label from the status in PepcDB or PDB records

| Sequence | soluble on expression in E. coli |
| --- | --- |
| MAGGPPKALPSTGPQSLRDMPHPLAGSSSEEAVGGDSTPSPDLLMARSFGDKDLILPNGGTPAGTASPASSSSLLNRLQLDDDIDGEARDLFVTVDDPKKHVCTMETYITYRITTKSTRVEFDLPEYSVRRRYQDFDWLRNKLEESQPTHLIPPLPEKFVVKGVVDRFSEEFVETRRKALDKFLKRITDHPVLSFNEHFNVFLTAKDLNAYKKQGIALLSRVGESVKHVTGGYKLRSRPLEFAAISDYLDTFALKLGTIDRIAQRIIKEEIEYLVELREYGPVYSTWSALEGELAEPLEGVSACIGNCSTALEELTDDITEEFLPVLREYVLYSDSMKGVLKKRDQVQAEYEAKLEAVALRKEERPKVPADVEKCQDRMECFNADLKADMERWQSNKRHDFRQLLVGLADKNIQYYEKCLMAWESIIPLLQEKQETK | soluble |
| MAGQTLKGPWNNLERLAENTGEFQEVVRAFYDTLDAARSSIRVVRVERVSHPLLQQQYELYRERLLQRCERRPVEQVLYHGTTAPAVPDICAHGFNRSFCGRNATVYGKGVYFAKRASLSVQDRYSPPNADGHKAVFVARVLTGDYGQGRRGLRAPPLRGPGHVLLRYDSAMDCICQPSIFVIFHDTQALPTHLITCEHVPRASPDDPSGAHHHHHH | soluble |
| MAGSNSRKPVVGMKIRVALVSALLAVSGCTTLSGKAPTLAPTPASTPPTSGKVTKSIISAMDGGLIGGSIGNGLSDEEKRSALEAEYKALEYTTSGQKVAWKGDQASHYGEVVPAQPYRVGSQDCRQYTQTVFTGGAGVTARGTACRNADGSWTPLTLEHHHHHH | soluble |
| MAGSPTCLTLIYILWQLTGSAASGPVKELVGSVGGAVTFPLKSKVKQVDSIVWTFNTTPLVTIQPEGGTIIVTQNRNRERVDFPDGGYSLKLSKLKKNDSGIYYVGIYSSSLQQPSTQEYVLHVYEHLSKPKVTMGLQSNKNGTCVTNLTCCMEHGEEDVIYTWKALGQAANESHNGSILPISWRWGESDMTFICVARNPVSRNFSSPILARKLCEGAADDPDGSGLNDIFEAQKIEWHHHHHHHH | soluble |
| MAGWETHKKAQWLCQLRKGMSMLPDTLSEQFVLYLDVLDGGSFSAAARKHPLTPSAVARRMDALERAVGSTLLVRTTHAVRATPAGLAFADRARRIVTELRLARAEAVSLSTAPQGLIRIDAPVPFGRRHLAPAVADFLKANPGLDVQLRLIGSFIDLQGEHLGEVDLVLRAGPLPDSRLVATSLAPMVRVVCASPEYLREHGVPASPGELPEHAGIDWDNLSPPYAWRFQHDGKLQHLRPKRARLATNNAEAMVDAALAGLGIAHLPTWLCSEYLLRGELQALFCDDGLPAAEPTCIYALRLEREASSRTRLLLAFLRERFGFPPPWDQALQQRLGER | not soluble |
| MAHHHHHHAYLPPNMAERLQMSSSSTEPTTTSSMLPAPHSSANMRHIEGLVVVPGVVKVSRSDVASQYTMPHTNNAPLLFSEPEHRAVDNSSGSNDAQLEPKDPHLGLMPHCLSCTLLTSAGAQEPDDVYGRSMPSSSAVGAVTTELECAVVPTLHASFTPGVSTSIMPAPTEAHSACGSRPLQQPRWGGNYDSGSQCVSFRGADRSNNVSGCGLRLVGDDVEWLQGSFEDSASSPREEVQLSWGHLQRQPCAGKSSAARAVPPALHDVREGTGGEKVLAAHHRFERAVQPQTQRQGVFPSADQENCQAAAMLWAAQQMAVFD | soluble |
| MAHHHHHHMAATKSAVSAAKRKAAKKVSRKSPEYTTLRKSCAPGAIAIILAGRFRGRRAVILKQLPHNGPLVVSGPMKYNGVPIRRIDSRYVIATSTTVDISSVDTAPITAEVFQRPKAEKPTKSEGDFMGDKQKAKAEKAAKKTSKAGKKTLVSDARAQLQKKIDAALIAAIKKDAQGKEKAGYLRSVFTVKPGDAPHRWNW | not soluble |
| MAHHHHHHMAAVDMQVRAGELPEEPKKDLKKEPSGASKSEEEMQSGIKTYYEMKIEEYESIINKKLQNKKRLEAQRNELNTRVRELCDEIQYLLEAASYVGEIVKPMGKNKVLVKINPEGKYVVDISHSVNIAQCTPNTRVALYNDSYKLHKILPSKVDPLVSLMKVEKVPDSTYEMVGGLDQQVKEVKEVIELPVKHPEIFESLGISQPKGVLLYGPPGTGKTLLARAVAHHTDCTFIRVSGSELVQKYIGEGSRMVRELFVMAREHAPSIIFMDEIDSIGSQRIEGEHGDSEVQRTMMELLNQLDGFESTQNIKVIMCTNRIDILDEALLRPGRIDRKIEFPNPNVEARMEILKIHSRKMNLMRGIDMMKIATDMNNCSGAEVKAVCTEAGMFALRERRVHVTQEDFEMAVAKVMKQDAEKNFTLRKLWK | soluble |
| MAHHHHHHMAAYVGSVPPATLTTLAQREVELSLLQFLRQYHPKVDELWRTHPDAEPMETAEEMCMDASDDCKSDHLPRLHRELHDSYVQGRFLFLGESTQGLYSSQPWLAFWALQAADMLDITEKLYEHVSPDALGNFILGCLQEVKKSGTSNDDDMRNNPMDMDEQQESVLLRNPVSIFDDDNDDGKRLVGFAGGQLAQIPHLAASYAALCSLCILPRTTYLRALPRAAIKRWLLSLRCKDGSFCMHTGGEADIRASYCVAVMTVLLQLNDVPAYTDGRDDTVLTEQTAAFVASCQTHEGGFACGLNASEAHGAYTQCGLAALILMRYPHLCKYAALRRWLSARQLKFEGGFNGRTNKLVDSCYSYWVGASHMLLRVGESYMRLLGQTETPRCLTAREALLLDHAQLIDTTSMCPMDDDAWRHAEEIHRQRTAHVEAYLHAPSHSTWKQQTATQSFLDEDVGDFYFNQRRLLLYVLSCCQDKEMGGLMDKPGCLNDAYHTCYSLSGMSTAQNLQYLPRSCTNETLMYATALRRGYIPNERDDYEIVLAVHNSNRGVGCGCYRSQERLSPLNPIFNICQSRVLAALRTWGVKSFIC | soluble |
| MAHHHHHHMADSSCTSAAASVATAAPAFDFKPLQKSNVDLFATAPQVKKLTRREKDKMLRELEVKRAKPRAVDDSSGAAGKGRKGQPRQSDRSAAVAEVVRSATISSSSDDASGIGNKGEKKKSLFETVFDTKEVEKELAAQEDRRSRKRSKKQVLRHALHSNEEEDARTVFVGNLPNTIHKRDVEKIFKSCGSITAVRIRCQALEELDEQHQNMGRAVRVLRGEIKKDAKYSATAYVLFDSAKSIASALEKNGLIFHNRHIVVTTMDVESRAYPPETSIFLGNVAYNTTEEDVWSFFQEHGIADVKRVRLVRDRETGDCKGFGYVEFMHASSVQPAIETRGDKLNGRELRIVHVNKSKEVKVATKSRREKRRSEHAGGRGGAEACKRSRSGGDGDGGSRGSAGYSNFKKPRTDSDLPSWAGLTTNPRRKMPKDLRPLVEGKVEFKPRGPRAPVKRKTRNPEK | soluble |
| MAHHHHHHMADYEPEDNLEQNSTLSSESIQEDISSLLRTKLAGEQWNPAKVDGWVEDIVNSILTELAELKKPYKYIVTCVFMQRTGAALSVGFISLWDNTKDGMVHVPFENDSFHCLVTVYFLKND | not soluble |
| MAHHHHHHMAIPPHGFIEAIHASPLRCVLYVMGAGSSAIAQLTSVAGCSRTLLDARVPYAMAAALQMLDDQPPKMVSATVARQMAQHAHHRAVEYSNGDDDGTLVGIGSTSAVQTNRIRHGKDSAFVAAWSQRQVVEFAMELPGHLARAEQEEQVTLLLFKALAECAKVPFEISFVVEPKRISYIVPDSPLRRLLQGEMKFLVFNTYGELRANFVPYVAETSFAVKPENSWKALLFPGSFRPLHWGHTELARAAVRAMATMKGTLNSTSTDTSSPSWNVPDASNVQVTYEIAVDNADKGIIDSDVELKKRVQQFLQRGARVAVTRARLFTEKALLFPGHGFIVGIDTMKRILDPKYYDNSREAMLRAMEFIREQGGYFVVAGRASGGKDAVWEDLTSIEVPAEVESMLISIRKEDFCVDVSSTMLRERNKSTC | not soluble |
| MAHHHHHHMASAVVAPPRGIKADPRASPNQGRRNGDGGRVLHAVPEEANKRRREREEAQHGAARYRGRNGQAVAELHGTARVKVNLVRRGTSKRRKGGRVGHLHHKPRRAPRPLAKHICPRALGETRISDGRPRPPQPRSDERHGSEGVVAVGAHVPYGSAPLRRRKHRNEAGRQQVRRVRHVRRLVPRVEGEVKPHVQLQRLTRRNHAHVPTQRGEADELGTLLHSNHVKVTAHRRGRRCRPKASARAAAGRERRRHARSRRSAPPAQVRRIDARRVAQKRSTHVHNRVIPDRSNAVRTRRGGRNDTLALRQHETHRRAAARGDLSVPHHNGAVGPHLHLRRQRVPRRHARRQRHIAVLNSHTLVPRAAVGARHAVHPDTRRQPCSRGV | not soluble |
| MAHHHHHHMASSEEEKRVAYCKQHNVHHLFELLATKLLLDRPENPFEYLREMLSKVEESEKSKQSYDPTVLSPPVNGAVEPLKKITLGTFGLDNAGKTTLISALGGQIEVNTTPTVGFTPTKFQTEKYDICIFDLGGAANFRGIWVHYFHDCHGLMFVIDSAADDAVVRESLNVLRDLSQHRYIKGKPILVLANKKDLENARGTKVIPNGFLDKLFGRNTAYRVVASCGIEEDPALEEGVEWLLSVVDKLHDTLEARVNCDTEEVKMEAKRKAAERLAALKTAS | not soluble |
| MAHHHHHHMAWTCSALSNASMIQNLERAALLSTPAIIASLQRVDRGWFVPDGMRSSAYRDEPLSLGHGATISAPHMHAIMLELLSPFLLSTPGSLPKAVLDIGSGSGYLTAILADICGDGSRVVGVEHVVELQERSLKVVLQHFPSWVNEGRITFINGDGRDISKLFHPHTAMFDVIHVGAAAASVPKDYLEAIKPGGCLVIPVGKENEVQHLHLYTKDEKGTITKKTHGGVSFVPLTSLRHQKNRS | soluble |
| MAHHHHHHMAYRVQKTTPAVVDNGTSSDGDEAQRASHKTAKTSSPSPIPKPARRKAPIADSDSDDESATRPAAKTTSPKFALKKAAVDSDSSDEDEPVPKNSSAGKRPAPRAEEAPAQRAARTESEGAARRTPHHLNEDGTFRRFQRIDPAKVTFDADALRDNRPGREHLVLRQNQEMMRTKGKGFNKLKQKNKGKFYGAGVDLSVRAYQFPDSDDE | soluble |
| MAHHHHHHMCHLCDVPVITPDKGVIQSGCGLHPKKTLGNGGAGGVHPGKNTTQETGFPTTGGPNNQHIHLRLCDLVLPRVEYNILPQIFRGVNRDLRHSWSILGGQCGTVKVRRVSLQHAVGATRLHVSVQETAPPFPLHGVTPPLHPLCGAHKLDGQFTDTAGQRTTRPLYTSHTRRIPTAFSLFYSPFFCVPSSNRAPSSSALHVPLTRRWQKGRRRLGTSHARTPRPHSPK | not soluble |
| MAHHHHHHMCSVPISCSSTHTHTPHSLIVMSAPKKVALVTGANRGIGFATARRLGELGFKVLLGARDAKRGEEAVDTLRNDKLDVDLLLMTPTEHTSVEAAVQKVEADYKRLDVLINNAALMDFDNKVFPLNIQRMRDEFEINFFATVDITNSFLPLMLRSSEAPRLVFVSTPLGTHETVDRPQNKYAHPNLTAYKCTKSAVNMYAHNLAKYLENYAEEAGGSAASAKVNCCYPGYVQTDMCFNSTEAHFTPYEGAETSVWLATLPADGPTGGFYHRAQKLPW | soluble |
| MAHHHHHHMDATELKNKGNEEFSAGRYVEAVNYFSKAIQLDEQNSVLYSNRSACFAAMQKYKDALDDADKCISIKPNWAKGYVRRGAALHGMRRYDDAIAAYEKGLKVDPSNSGCAQGVKDVQVAKAREARDPIARVFTPEAFRKIQENPKLSLLMLQPDYVKMVDTVIRDPSQGRLYMEDQRFALTLMYLSGMKIPNDGDGEEEERPSAKAAETAKPKEEKPLTDNEKEALALKEEGNKLYLSKKFEEALTKYQEAQVKDPNNTLYILNVSAVYFEQGDYDKCIAECEHGIEHGRENHCDYTIIAKLMTRNALCLQRQRKYEAAIDLYKRALVEWRNPDTLKKLTECEKEHQKAVEEAYIDPEIAKQKKDEGNQYFKEDKFPEAVAAYTEAIKRNPAEHTSYSNRAAAYIKLGAFNDALKDAEKCIELKPDFVKGYARKGHAYFWTKQYNRALQAYDEGLKVDPSNADCKDGRYRTIMKIQEMASGQSADGDEAARRAMDDPEIAAIMQDSYMQLVLKEMQNDPTRIQEYMKDSGISSKINKLISAGIIRFGQ | soluble |
